Blank lines part the entries; values can stand above or below the molecule they belong to.
Legend:
[1] = target: chimeric receptor containing the extracellular domain of VEGFR-2, on Ba/F3 cells; assay: cell-based or functional assay
[2] = target: T1, VEGFR-2-Ig (extracellular domain of human VEGFR-2 fused to the Fc portion of human IgG1) (human, UniProt P35968 20-764); assay: precipitation of 35S-labeled ligand from conditioned medium by receptor-Ig on protein A Sepharose, SDS-PAGE
T1 construct: extracellular domain; Expressed in 293T cells, captured on protein A Sepharose; not shown: Fc portion of human IgG1
T1 sequence (P35968 20-764): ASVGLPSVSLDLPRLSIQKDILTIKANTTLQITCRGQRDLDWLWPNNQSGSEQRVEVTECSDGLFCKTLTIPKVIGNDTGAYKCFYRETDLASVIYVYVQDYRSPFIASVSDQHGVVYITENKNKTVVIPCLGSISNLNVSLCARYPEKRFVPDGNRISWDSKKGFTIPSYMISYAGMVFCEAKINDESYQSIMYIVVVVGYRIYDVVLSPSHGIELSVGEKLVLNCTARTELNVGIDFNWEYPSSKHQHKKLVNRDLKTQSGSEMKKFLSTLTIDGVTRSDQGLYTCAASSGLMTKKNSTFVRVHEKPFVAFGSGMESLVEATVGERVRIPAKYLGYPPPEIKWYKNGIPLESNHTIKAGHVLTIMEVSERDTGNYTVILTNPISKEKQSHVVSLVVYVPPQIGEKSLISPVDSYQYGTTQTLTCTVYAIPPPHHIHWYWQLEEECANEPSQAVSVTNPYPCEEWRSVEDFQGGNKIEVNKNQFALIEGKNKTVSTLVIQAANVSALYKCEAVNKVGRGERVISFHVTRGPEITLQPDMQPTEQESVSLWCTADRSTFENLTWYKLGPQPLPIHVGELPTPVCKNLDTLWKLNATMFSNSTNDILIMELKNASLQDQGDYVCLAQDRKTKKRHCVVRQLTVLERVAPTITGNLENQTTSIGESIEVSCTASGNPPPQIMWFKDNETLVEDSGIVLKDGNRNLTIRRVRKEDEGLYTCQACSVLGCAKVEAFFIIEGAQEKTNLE
Protocol: (§1) To further assess the interactions between VEGF-D and the VEGF receptors, VEGF-DΔNΔC was tested for its capacity to bind to soluble immunoglobulin fusion proteins comprising the extracellular domains of human VEGFR-1, human VEGFR-2 and human VEGFR-3. The corresponding fragment of VEGF-C, VEGF-CΔNΔC, was used for comparison. For binding experiments, 293T human embryonal kidney cells were transfected with plasmids encoding the soluble receptor-immunoglobulin fusion proteins VEGFR-1-Ig, VEGFR-2-Ig or VEGFR-3-Ig using the calcium-phosphate (Ca-phosphate) method. In these fusion proteins, the extracellular domain of the relevant VEGF receptor is fused to the Fc portion of human IgG₁. The cells were incubated for 24 hours after transfection, washed with Dulbecco's Modified Eagle's Medium (DMEM) containing 0.2% bovine serum albumin (BSA) and starved for 24 hours. Media were then collected and clarified by centrifugation, and fusion proteins were precipitated using protein A Sepharose beads. […] Metabolic labeling of 293-EBNA cells was carried out essentially as described (Joukov et al., 1997). The Sepharose beads were then washed twice with binding buffer (0.5% BSA, 0.02% Tween 20, 1 μg/ml heparin in phosphate buffered saline (PBS)) at 4° C. and once with PBS, boiled in Laemmli sample buffer, and proteins were then analyzed by SDS-PAGE.
(§2) In FIG. 3, precipitation of labeled VEGF₁₆₅, VEGF-CΔNΔC and VEGF-DΔNΔC by VEGFR-1-Ig, VEGFR-2-Ig and VEGFR-3-Ig was carried out as described above. The fusion proteins used for the precipitations are shown to the right. “Vector” denotes results of precipitations from medium derived from cells transfected with expression vector lacking sequence encoding the VEGFs. The molecular weight markers are indicated in kDa

[3] = target: T2, VEGFR-1-Ig (extracellular domain of human VEGFR-1 fused to the Fc portion of human IgG1) (human, UniProt P17948 27-758); assay: as above
T2 construct: extracellular domain; Expressed in 293T cells, captured on protein A Sepharose; not shown: Fc portion of human IgG1
T2 sequence (P17948 27-758): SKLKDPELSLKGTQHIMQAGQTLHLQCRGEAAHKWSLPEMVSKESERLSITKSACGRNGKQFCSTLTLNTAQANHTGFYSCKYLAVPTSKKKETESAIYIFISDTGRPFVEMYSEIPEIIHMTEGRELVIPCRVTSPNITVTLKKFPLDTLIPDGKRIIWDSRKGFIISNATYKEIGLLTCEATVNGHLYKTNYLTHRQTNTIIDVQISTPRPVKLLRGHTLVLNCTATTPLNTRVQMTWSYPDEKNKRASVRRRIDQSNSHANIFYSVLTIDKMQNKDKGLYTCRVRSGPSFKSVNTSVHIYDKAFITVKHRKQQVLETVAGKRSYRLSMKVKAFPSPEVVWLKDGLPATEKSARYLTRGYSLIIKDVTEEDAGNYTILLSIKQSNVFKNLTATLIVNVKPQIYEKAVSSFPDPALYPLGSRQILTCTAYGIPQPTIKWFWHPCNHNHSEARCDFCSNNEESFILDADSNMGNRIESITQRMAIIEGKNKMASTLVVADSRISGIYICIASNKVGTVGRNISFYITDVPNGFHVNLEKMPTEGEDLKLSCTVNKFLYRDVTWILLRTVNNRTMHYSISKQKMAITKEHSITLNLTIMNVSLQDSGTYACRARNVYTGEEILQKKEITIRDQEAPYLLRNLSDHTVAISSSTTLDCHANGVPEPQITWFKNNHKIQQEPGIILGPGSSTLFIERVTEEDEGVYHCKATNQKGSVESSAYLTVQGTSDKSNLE
Protocol: as §1, §2

[4] = target: T3, VEGFR-3-Ig (extracellular domain of human VEGFR-3 fused to the Fc portion of human IgG1) (human, UniProt P35916 25-775); assay: as above
T3 construct: extracellular domain; Expressed in 293T cells, captured on protein A Sepharose; not shown: Fc portion of human IgG1
T3 sequence (looked up): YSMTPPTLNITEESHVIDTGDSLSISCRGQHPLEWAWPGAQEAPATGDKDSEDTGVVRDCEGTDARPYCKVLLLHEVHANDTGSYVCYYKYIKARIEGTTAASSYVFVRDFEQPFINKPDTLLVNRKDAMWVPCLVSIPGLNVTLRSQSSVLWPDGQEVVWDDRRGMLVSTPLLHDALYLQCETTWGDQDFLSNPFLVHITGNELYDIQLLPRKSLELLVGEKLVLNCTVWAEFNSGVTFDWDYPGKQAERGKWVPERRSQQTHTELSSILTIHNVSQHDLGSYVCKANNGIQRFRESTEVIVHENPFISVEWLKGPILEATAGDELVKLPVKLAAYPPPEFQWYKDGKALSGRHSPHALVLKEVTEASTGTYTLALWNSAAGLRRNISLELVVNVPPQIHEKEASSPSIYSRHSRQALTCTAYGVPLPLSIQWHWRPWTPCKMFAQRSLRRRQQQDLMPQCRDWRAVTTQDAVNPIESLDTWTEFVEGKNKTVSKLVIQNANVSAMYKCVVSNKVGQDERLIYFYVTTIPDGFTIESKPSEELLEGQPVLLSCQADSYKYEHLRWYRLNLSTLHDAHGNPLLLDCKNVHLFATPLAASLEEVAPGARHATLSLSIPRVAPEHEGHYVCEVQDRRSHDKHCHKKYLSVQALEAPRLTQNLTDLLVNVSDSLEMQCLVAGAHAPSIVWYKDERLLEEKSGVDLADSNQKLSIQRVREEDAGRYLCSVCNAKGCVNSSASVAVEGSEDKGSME
Protocol: as §1, §2

[5] = target: the molecule itself; assay: size exclusion chromatography and SDS-PAGE (self-association)

Molecule: VEGF-DΔNΔC non-covalent homodimer (size exclusion peak 2, 49 kDa) (from UniProt O43915 93-201) (ligand)
VEGFR-2 binding activity (Ba/F3 cell bioassay) of size exclusion peak 1 (% of that in peak 2) [1]: 1

B2: VEGF-DΔNΔC monomer (size exclusion peak 3, 25 kDa) (ligand)
chain: FYDIETLKVIDEEWQRTQCSPRETCVEVASELGKSTNTFFKPPCVNVFRCGGCCNEESLICMNTSTSYISKQLFEISVPLTSVPELVPVKVANHTGCKCLPTAPRHPYS
notes: also called VEGF-D?N?C monomer; monomeric form of VEGF-D?N?C; not shown: FLAG octapeptide tag at the N-terminus
binding result [5]: binds

Results, then the molecule that gave them:

binding result [2]: binds
binding result [3]: no binding
binding result [4]: binds
B1: VEGF-DΔNΔC (human VEGF-D amino acid residues 93 to 201 tagged with the FLAG octapeptide adjacent to the N-terminus) (ligand, not shown: small tags and cut ends)
chain: B2 chain
notes: purified from COS cells for the enzyme immunoassay; human VEGF-D?N?C

binding result [3]: binds
binding result [4]: no binding
B3: human VEGF165 (ligand, UniProt P15692-4 27-191, looked up)
chain: APMAEGGGQNHHEVVKFMDVYQRSYCHPIETLVDIFQEYPDEIEYIFKPSCVPLMRCGGCCNDEGLECVPTEESNITMQIMRIKPHQGQHIGEMSFLQHNKCECRPKKDRARQENPCGPCSERRKHLFVQDPQTCKCSCKNTDSRCKARQLELNERTCRCDKPRR
notes: 35S-labeled conditioned medium

— patent publication US20020127222A1 (VEGENICS, published 2002)
